Test results taken from US9963506B2, “Human-mouse chimeric anti-CD147 antibody with non-fucosylated glycosylation” (Fourth Military Medical University, priority 2015, dated 2018).

Assays:
NCI-H520 cells = experiment: Transwell invasion assay; type: cell-based, human; conditions: 24 hours
Method: (§1) For invasion assay, NCI-H520 or A549 cells were serum-starved for 12 hours in DMEM containing 0.1% FBS. Serum-starved cells were trypsinized and re-suspended in DMEM containing 0.1% FBS and Metuzumab solution at 0.1 μg/ml, 1 μg/ml and 10 μg/ml, respectively. 5×10^4 cells were added to the upper chamber of each well (6.5 mm in diameter, 8-μm pore size; Corning, N.Y.) coated with […] Matrigel (BD Bioscience). Medium containing 10% FBS was placed in the lower compartment of the chamber. After 24 hours at 37° C., cells on the upper membrane surface were removed by careful wiping with a cotton swab, and the filters were fixed by treatment with 95% ethanol for 30 minutes and stained with 0.2% crystal violet solution for 30 minutes. Invasive cells adhering to the undersurface of the filter were then counted (five high-power fields/chamber) using a CX71 microscope (Olympus).

A549 cells = experiment: Transwell invasion assay; type: cell-based, human; conditions: 24 hours
Method: as §1

CD147 = target: T1, CD147 (Homo sapiens, UniProt P35613); experiment: Immunohistochemical detection of CD147 in human cancer tissue arrays (tissue cross reactivity); type: binding
T1 construct: FFPE tissue sections from a selected panel of human cancer tissue arrays; tissue Chaoying Biotechnology Co., LTD, China; host or cells: human cancer tissue arrays (lung, ovarian, stomach, esophagus, breast, cervical, liver, colon cancer), FFPE
T1 sequence (P35613 22-269 isoform P35613-2 limits assumed): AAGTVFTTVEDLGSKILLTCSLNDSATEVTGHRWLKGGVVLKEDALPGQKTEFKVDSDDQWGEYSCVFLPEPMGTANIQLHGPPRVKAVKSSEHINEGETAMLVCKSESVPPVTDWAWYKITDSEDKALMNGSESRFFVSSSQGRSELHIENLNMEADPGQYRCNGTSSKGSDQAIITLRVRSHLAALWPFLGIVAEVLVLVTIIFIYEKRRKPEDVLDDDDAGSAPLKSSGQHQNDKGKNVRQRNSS
Method: To test the specificity of Metuzumab (HcHAb18), tissue cross reactivity of Metuzumab was evaluated in FFPE tissue sections from a selected panel of human cancer tissue arrays (Chaoying Biotechnology Co., LTD, China.). Slides were microwaved for 10 min in 10 mM sodium citrated (pH 6.0), cooled for 30 min at 25° C. After incubating for 10 min in 3% H2O2 to block endogenous peroxidase, and blocking for 1 hr in 10% goat serum, slides were incubated overnight in a humidity chamber with biotinylated Metuzumab (30 μg/ml). Binding was visualized with streptavidin-conjugated peroxidase (ZsBio, China) and DAB detection system (ZsBio, China). Sections were analyzed using a bright-field microscope. The staining results were evaluated by 2 experienced pathologist in a blinded manner and classified into four categories: of 0 (no visible staining), 1+ (light brown), 2+ (mid-brown), and 3+ (dark brown), respectively, with the same intensity covering more than 75% of the staining area.

## Metuzumab: human-mouse chimeric anti-CD147 IgG1, heavy chain SEQ ID NO: 4, light chain SEQ ID NO: 3, Mannose-5 glycoform lacking fucose and xylose
NCI-H520 cells; NCI-H520, 0.1 μg/ml
  invasiveness repressed compared to control groups: 30.0%
NCI-H520 cells; NCI-H520, 1 μg/ml
  invasiveness repressed compared to control groups: 48.0%
NCI-H520 cells; NCI-H520, 10 μg/ml
  invasiveness repressed compared to control groups: 66.2%
A549 cells; A549, 0.1 μg/ml
  invasiveness repressed compared to control groups: 53.5%
A549 cells; A549, 1 μg/ml
  invasiveness repressed compared to control groups: 61.5%
A549 cells; A549, 10 μg/ml
  invasiveness repressed compared to control groups: 74.6%
CD147; Colon cancer
  Positive rate: 82.00%
  Sensitivity response rate: 82.00%
  Specificity: 84.00%
  Tumor tissues specifically bound (positive/total): 41/50
CD147; Colon cancer, number 50
  Staining level 0 (no visible staining), number of tissues: 9
  Staining level 1+ (light brown), number of tissues: 8
  Staining level 2+ (mid-brown), number of tissues: 26
  Staining level 3+ (dark brown), number of tissues: 7
CD147; Esophagus cancer
  Positive rate: 93.75%
  Sensitivity response rate: 93.75%
  Specificity: 81.25%
  Tumor tissues specifically bound (positive/total): 30/32
CD147; Esophagus cancer, number 32
  Staining level 0 (no visible staining), number of tissues: 2
  Staining level 1+ (light brown), number of tissues: 6
  Staining level 2+ (mid-brown), number of tissues: 13
  Staining level 3+ (dark brown), number of tissues: 11
CD147; Liver cancer
  Positive rate: 85.00%
  Sensitivity response rate: 85.00%
  Specificity: 75.00%
  Tumor tissues specifically bound (positive/total): 17/20
CD147; Liver cancer, number 20
  Staining level 0 (no visible staining), number of tissues: 3
  Staining level 1+ (light brown), number of tissues: 11
  Staining level 2+ (mid-brown), number of tissues: 6
CD147; Lung cancer
  Positive rate: 88.24%
  Sensitivity response rate: 88.24%
  Specificity: 91.67%
  Tumor tissues specifically bound (positive/total): 60/68
CD147; Lung cancer, number 68
  Staining level 0 (no visible staining), number of tissues: 8
  Staining level 1+ (light brown), number of tissues: 5
  Staining level 2+ (mid-brown), number of tissues: 23
  Staining level 3+ (dark brown), number of tissues: 32
CD147; Mammary cancer
  Positive rate: 90.00%
  Sensitivity response rate: 90.00%
  Specificity: 77.50%
CD147; Mammary cancer, number 40
  Staining level 0 (no visible staining), number of tissues: 4
  Staining level 1+ (light brown), number of tissues: 6
  Staining level 2+ (mid-brown), number of tissues: 11
  Staining level 3+ (dark brown), number of tissues: 19
CD147; Mammary tissue
  Positive rate: 22.50%
CD147; Mammary tissue, number 40
  Staining level 0 (no visible staining), number of tissues: 31
  Staining level 1+ (light brown), number of tissues: 5
  Staining level 2+ (mid-brown), number of tissues: 2
  Staining level 3+ (dark brown), number of tissues: 2
CD147; Normal cervix uteri
  Positive rate: 0%
CD147; Normal cervix uteri, number 4
  Staining level 0 (no visible staining), number of tissues: 4
  Staining level 1+ (light brown), number of tissues: 0
  Staining level 2+ (mid-brown), number of tissues: 0
  Staining level 3+ (dark brown), number of tissues: 0
CD147; Normal colon
  Positive rate: 16.00%
CD147; Normal colon, number 50
  Staining level 0 (no visible staining), number of tissues: 42
  Staining level 1+ (light brown), number of tissues: 5
  Staining level 2+ (mid-brown), number of tissues: 2
  Staining level 3+ (dark brown), number of tissues: 1
CD147; Normal esophagus
  Positive rate: 18.75%
CD147; Normal esophagus, number 16
  Staining level 0 (no visible staining), number of tissues: 13
  Staining level 1+ (light brown), number of tissues: 3
  Staining level 2+ (mid-brown), number of tissues: 0
  Staining level 3+ (dark brown), number of tissues: 0
CD147; Normal liver
  Positive rate: 25.00%
CD147; Normal liver, number 4
  Staining level 0 (no visible staining), number of tissues: 3
  Staining level 1+ (light brown), number of tissues: 0
  Staining level 2+ (mid-brown), number of tissues: 1
  Staining level 3+ (dark brown), number of tissues: 0
CD147; Normal lung
  Positive rate: 8.33%
CD147; Normal lung, number 12
  Staining level 0 (no visible staining), number of tissues: 10
  Staining level 1+ (light brown), number of tissues: 2
  Staining level 2+ (mid-brown), number of tissues: 0
  Staining level 3+ (dark brown), number of tissues: 0
CD147; Normal ovary
  Positive rate: 0%
CD147; Normal ovary, number 12
  Staining level 0 (no visible staining), number of tissues: 12
  Staining level 1+ (light brown), number of tissues: 0
  Staining level 2+ (mid-brown), number of tissues: 0
  Staining level 3+ (dark brown), number of tissues: 0
CD147; Ovary cancer
  Positive rate: 75%
  Sensitivity response rate: 75.00%
  Specificity: 100%
CD147; Ovary cancer, number 12
  Staining level 0 (no visible staining), number of tissues: 3
  Staining level 1+ (light brown), number of tissues: 2
  Staining level 2+ (mid-brown), number of tissues: 3
  Staining level 3+ (dark brown), number of tissues: 4
CD147; breast cancer
  Tumor tissues specifically bound (positive/total): 36/40
CD147; cervical cancer
  Positive rate: 85.00%
  Sensitivity response rate: 85.00%
  Specificity: 100%
  Tumor tissues specifically bound (positive/total): 17/20
CD147; cervical cancer, number 20
  Staining level 0 (no visible staining), number of tissues: 3
  Staining level 1+ (light brown), number of tissues: 2
  Staining level 2+ (mid-brown), number of tissues: 5
  Staining level 3+ (dark brown), number of tissues: 10
CD147; gastric cancer
  Positive rate: 78.26%
  Sensitivity response rate: 78.26%
  Specificity: 80.95%
CD147; gastric cancer, number 23
  Staining level 0 (no visible staining), number of tissues: 5
  Staining level 1+ (light brown), number of tissues: 1
  Staining level 2+ (mid-brown), number of tissues: 7
  Staining level 3+ (dark brown), number of tissues: 10
CD147; normal stomach
  Positive rate: 19.05%
CD147; normal stomach, number 21
  Staining level 0 (no visible staining), number of tissues: 17
  Staining level 1+ (light brown), number of tissues: 3
  Staining level 2+ (mid-brown), number of tissues: 1
  Staining level 3+ (dark brown), number of tissues: 0
CD147; ovarian cancer
  Tumor tissues specifically bound (positive/total): 9/12
CD147; stomach cancer
  Tumor tissues specifically bound (positive/total): 18/23
